Reference: article PMC12592377

Target: HIV-1 capsid (CA) protein (HIV-1)
Experiment: cryo-EM structure; cryo-ET of cryo-FIB lamellae with template matching and subtomogram averaging (C6 symmetry kept) of CA hexamers in capsid lattices of isolated VLP cores incubated with permeabilized CEM cells, EGS-fixed; cores outside the nucleus (approaching and docking), traversing the NPC and imported

Question: How did the stoichiometry N turn out when “HIV-1 capsid (CA) protein (natural protein)” was run?
Answer: Its stoichiometry N is 6.
